Bridge positions count the residues as written; N and C are the ends. Square brackets hold non-standard residues; d marks the D form. Ends that are not written are not given here. hArg = N=C(N)NCCCC[C@H](N)C(=O)O
What was measured:
[1] = biological target: platelet GPIIb/IIIa receptor (human, UniProt P08514 32-1039; P05106 27-788); assay: cell-based or functional assay
[2] = biological target: human thrombin (human, UniProt P00734 328-622); assay: cell-based or functional assay

Chain of platelet GPIIb/IIIa receptor (P08514 32-1039, chain 1 of 2): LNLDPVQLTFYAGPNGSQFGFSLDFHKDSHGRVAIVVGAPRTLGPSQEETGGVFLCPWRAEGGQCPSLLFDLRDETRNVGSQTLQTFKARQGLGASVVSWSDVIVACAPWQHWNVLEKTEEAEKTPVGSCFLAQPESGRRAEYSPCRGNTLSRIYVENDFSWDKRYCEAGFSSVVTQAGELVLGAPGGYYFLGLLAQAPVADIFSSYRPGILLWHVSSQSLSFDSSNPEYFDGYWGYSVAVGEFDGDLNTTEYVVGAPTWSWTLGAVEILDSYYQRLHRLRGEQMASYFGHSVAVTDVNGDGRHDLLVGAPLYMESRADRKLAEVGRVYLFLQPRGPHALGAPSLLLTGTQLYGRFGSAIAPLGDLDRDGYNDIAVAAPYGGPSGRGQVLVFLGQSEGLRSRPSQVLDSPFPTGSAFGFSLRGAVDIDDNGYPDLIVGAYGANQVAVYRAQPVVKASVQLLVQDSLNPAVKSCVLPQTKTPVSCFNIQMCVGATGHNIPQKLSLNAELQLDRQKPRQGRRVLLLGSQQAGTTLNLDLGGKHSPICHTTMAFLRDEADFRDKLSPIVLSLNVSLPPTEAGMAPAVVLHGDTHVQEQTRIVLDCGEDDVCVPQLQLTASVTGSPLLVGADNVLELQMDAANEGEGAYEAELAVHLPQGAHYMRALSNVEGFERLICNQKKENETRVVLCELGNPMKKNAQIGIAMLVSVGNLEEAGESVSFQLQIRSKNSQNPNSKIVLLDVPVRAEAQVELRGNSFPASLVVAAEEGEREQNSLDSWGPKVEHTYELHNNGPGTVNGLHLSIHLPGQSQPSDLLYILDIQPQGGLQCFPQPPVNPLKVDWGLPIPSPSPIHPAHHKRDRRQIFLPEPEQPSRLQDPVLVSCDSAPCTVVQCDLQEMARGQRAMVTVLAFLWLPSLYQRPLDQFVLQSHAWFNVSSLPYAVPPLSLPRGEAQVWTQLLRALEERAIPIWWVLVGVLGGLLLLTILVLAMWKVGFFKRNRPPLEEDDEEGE
Chain of platelet GPIIb/IIIa receptor (P05106 27-788, chain 2 of 2): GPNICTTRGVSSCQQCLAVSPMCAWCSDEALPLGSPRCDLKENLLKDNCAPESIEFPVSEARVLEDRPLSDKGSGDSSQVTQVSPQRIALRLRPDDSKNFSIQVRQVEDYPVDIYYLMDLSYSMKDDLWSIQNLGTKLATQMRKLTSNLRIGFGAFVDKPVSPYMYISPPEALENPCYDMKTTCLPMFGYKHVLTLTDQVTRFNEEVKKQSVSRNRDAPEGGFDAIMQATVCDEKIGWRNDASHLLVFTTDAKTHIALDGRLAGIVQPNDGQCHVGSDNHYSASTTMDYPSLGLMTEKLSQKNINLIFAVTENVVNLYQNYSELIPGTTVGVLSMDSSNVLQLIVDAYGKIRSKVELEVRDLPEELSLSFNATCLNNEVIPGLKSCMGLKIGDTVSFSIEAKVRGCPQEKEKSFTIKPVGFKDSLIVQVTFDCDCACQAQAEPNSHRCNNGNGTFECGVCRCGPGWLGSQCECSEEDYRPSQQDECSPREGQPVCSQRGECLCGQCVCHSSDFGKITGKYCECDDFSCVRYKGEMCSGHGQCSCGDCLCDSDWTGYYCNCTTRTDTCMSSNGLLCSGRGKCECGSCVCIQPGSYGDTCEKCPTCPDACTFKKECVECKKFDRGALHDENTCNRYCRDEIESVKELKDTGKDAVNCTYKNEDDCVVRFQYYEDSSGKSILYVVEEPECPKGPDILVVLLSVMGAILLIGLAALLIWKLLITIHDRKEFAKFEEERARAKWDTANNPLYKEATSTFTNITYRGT

Binder | Inhibitory rate of platelet aggregation (%), ADP-induced human platelet aggregation in vitro, 1 × 10-5 mol/L [1] [%] | Inhibitory rate of platelet aggregation (%), ADP-induced human platelet aggregation in vitro, 3 × 10-6 mol/L [1] [%] | Platelet aggregation rate (%), ADP-induced human platelet aggregation in vitro, 1 × 10-5 mol/L (saline 73.39) [1] [%] | Platelet aggregation rate (%), ADP-induced human platelet aggregation in vitro, 3 × 10-6 mol/L (saline 73.39) [1] [%] | APTT(S), human platelet poor plasma in vitro, 1 × 10^-6 mol/L (saline 33.10) [2] [s] | Fold of Prolongation in APTT, 1 × 10^-6 mol/L [2] [fold] | Fold of Prolongation in PT, 1 × 10^-6 mol/L [2] [fold] | PT(S), human platelet poor plasma in vitro, 1 × 10^-6 mol/L (saline 11.22) [2] [s] | TT(S), human platelet poor plasma in vitro, 1 × 10^-6 mol/L (saline 14.07) [2] [s]
[dF]PRPGGGGNGRFEEIPEEYLEAAAKC[hArg]GDWPC (disulfide 26-32) [polypeptide 2] | 100 | 66.7 | 0 | 26.1 | 104 | 3.35 | 3.04 | 34.8 | > 180
FPRPGGGGNGDFEEIPEEYLCXGDWPC (D-Phe at position 1 (N-terminal); Har (homoarginine) at position 22; disulfide bond between the two Cys (21 and 27)) [polypeptide 3] | 47.1 | 26.4 | 35.4 | 57.9 | 102 | 2.94 | 2.14 | 25.7 | > 180
